# Laboratory results: patent publication US7101844B2, “Cytoplasmic transduction peptides and uses thereof” (Creagene, Inc., priority 2002, dated 2006)
# Primed or numbered codes have the meaning given here. No end group written: not given here. FITC′ = not defined here
# Experiments:
# [1] = mouse, in vivo
# Procedure: CTP-β-gal was administered via the peritoneal cavity or a tail vein of mice. Four hr later, organs such as thymus, heart, spleen, liver and kidney were extracted. The organs rapidly frozen were sectioned with a microtome, and then incubated overnight in a X-gal reaction solution, followed by observation of the β-gal activity under a microscope.
# [2] = design: species or system BALB/c mice; conditions: mouse, in vivo, iv
# Procedure: To elucidate whether the CTP of this invention can deliver its fusion partner into cells in vivo as well as into cells in vitro, BALB/c mice were injected i.p. with 25 μg/(g of mouse) of CTP-β-gal, PTD-β-gal, MTS-β-gal fusion protein or β-gal protein, or injected i.v. via tail vein with 100 μg/mouse of fusion proteins. Four hr after injection, mice were euthanized and skinned, and their peritoneal cavities were dissected, followed by washing three times with a PBS buffer. After fixation with a fixing solution, whole body was stained in X-gal solution. Each organ was extracted and the β-gal activity was measured.
# HeLa cells = test: Kinetics on the transduction of CTP-β-gal and PTD-β-gal; assay type: cell-based; conditions: trypsin prior to cell harvest
# Procedure: The Membrane permeability of CTP-β-gal and PTD-β-gal was analyzed in kinetics. Cells were treated with the fusion protein and lysed with 0.9% Triton X-100 solution without trypsinization, after which the overall β-gal activity in the cells was measured. Furthermore, in order to measure the authentic trnsduction amount of β-gal imported into the cells, the cells were trypsinized following the treatment with fusion protein, and then examined the amount of the β-gal activity imported into the cells in the same conditions (see FIG. 8).
# [3] = target: T1, XIAP (X-linked inhibitor of apoptosis protein) (Homo sapiens, UniProt P98170); test: Inhibition of XIAP function: UV-induced apoptosis of XIAP-transfected Jurkat E6 cells (Annexin V FACS); assay type: cell-based; conditions: 0.1, 0.5, 1 μg/ml peptide, 2 hr
# T1 construct: expressed in transfected cells; host or cells: Jurkat E6
# Procedure: Since the first amino acid, alanine, of the 7-amino acid sequence at the N-terminal of the Smac/DIABLO peptide is pivotal in binding to XIAP, as reported previously, CTP was linked to C-terminal of the Smac/DIABLO peptide to prepare Smac/Diablo-CTP-FITC peptide. For detection, FITC was conjugated at the C-terminal of the peptide: Smac/Diablo-CTP-FITC ([…]-FITC).
# Jurkat E6 (2×10^5 cell/ml) were transfected with 10 μg of pcDNA3-XIAP using a transfection reagent, GenePORTER 2 (1 μl/μg DNA) and cultured for 2 days at 37° C. in RPMI containing 10% FBS. Two days later, the cells were washed twice with 1× PBS, and treated with Smac/Diablo-CTP-FITC peptide (synthesized at HHMI, KECK BIOTECHNOLOGY RESOURCE CENTER) for 2 hr at 37° C. in a serum free media at concentrations of 0.1 μg/ml, 0.5 μg/ml and 1 μg/ml. Then, to measure the extent of apoptosis, the cells were exposed to UV light (40 W) for 50 sec in a culture hood. After 6 hr, the cells were washed twice with 1 × PBS and the apoptozed cells were measured by FACS using Annexin V-FITC apoptosis detection kit (BD Biosciences Pharmingen. Cot: 556547).
# T1 sequence (P98170 whole entry, species assumed): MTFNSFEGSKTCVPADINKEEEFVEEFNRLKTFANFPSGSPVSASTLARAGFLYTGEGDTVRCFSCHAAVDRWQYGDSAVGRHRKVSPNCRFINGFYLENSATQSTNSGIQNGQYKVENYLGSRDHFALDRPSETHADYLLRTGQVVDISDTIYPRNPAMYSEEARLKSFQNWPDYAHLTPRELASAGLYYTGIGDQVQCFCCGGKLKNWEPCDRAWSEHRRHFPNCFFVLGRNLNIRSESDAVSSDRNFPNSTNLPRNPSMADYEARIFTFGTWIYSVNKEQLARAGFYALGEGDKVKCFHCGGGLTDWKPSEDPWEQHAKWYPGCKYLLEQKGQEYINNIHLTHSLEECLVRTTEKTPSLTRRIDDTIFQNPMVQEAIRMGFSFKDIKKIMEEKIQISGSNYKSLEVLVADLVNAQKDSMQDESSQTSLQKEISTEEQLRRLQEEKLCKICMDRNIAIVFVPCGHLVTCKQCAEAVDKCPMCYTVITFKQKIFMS
Substance,"β-gal activity in organ sections (thymus, heart, spleen, liver, kidney) [1]","β-gal activity in auxiliary, inguinal and popliteal lymph nodes [2]",transduction potential / import into cells over time (HeLa cells),apoptosis of cells transfected with 10 μg pcDNA-XIAP DNA [3]
"β-gal: only β-galactosidase protein, negative control",little or no β-gal activity in the inner side,not observed,not to be imported into cells with the lapse of time,–
"AVPIAQKSEGGRRARRRRRRK-FITC (AVPIAQKSEGGRRARRRRRRK-{FITC′}) [Smac/Diablo-CTP-FITC, N-terminal Smac/DIABLO peptide linked to CTP, FITC at the C-terminal]",–,–,–,greatly increased
